The data set deals with CCCCC[C@H](O)/C=C/[C@H]1[C@H](O)CC(=O)[C@@H]1C/C=C\CCCC(=O)O. Put plainly: cells, lysate or membranes.

In the case of “prostaglandin transporter PGT (OATP2A1) (Homo sapiens; S346A)”, the Km (commonly the substrate concentration at which the rate is half of its maximum) came out at 1.14 µM.

The values above are taken from publication PMC12789631.
